The values that follow come from paper PMC9736777, “Expression and Characterization of Monomeric Recombinant Isocitrate Dehydrogenases from Corynebacterium glutamicum and Azotobacter vinelandii for NADPH Regeneration” (International Journal of Molecular Sciences, 2022).

Usually Km stands for the concentration of substrate that gives half-maximal velocity. As a reminder, the kcat is the number of substrate molecules converted per active site and unit of time at saturation. As a reminder, the kcat/Km is the turnover number divided by the Michaelis constant.

Assay in all cases: NADPH fluorescence, initial rates, Michaelis-Menten fit
Substrate in data set [1]: NC(=O)c1ccc[n+]([C@@H]2O[C@H](COP(=O)(O)OP(=O)(O)OC[C@H]3O[C@@H](n4cnc5c(N)ncnc54)[C@H](OP(=O)(O)O)[C@@H]3O)[C@@H](O)[C@H]2O)c1
The class given is biochemical, Azotobacter vinelandii. The note with it: 1 mM isocitrate, 1 mM MnCl2, 20 mM MOPS pH 7.4, 100 mM NaCl, 30 °C, varied: cofactor. The text has this: (§1) NADPH fluorescence, initial rates, Michaelis-Menten fit on AvIDH

Substrate in data set [2]: O=C(O)CC(C(=O)O)C(O)C(=O)O
The class given is biochemical, Azotobacter vinelandii. The note with it: 1 mM NADP+, 1 mM MnCl2, 20 mM MOPS pH 7.4, 100 mM NaCl, 30 °C, DL-isocitrate 0-100 μM.
Text: as §1

Substrate in data set [3]: NC(=O)c1ccc[n+]([C@@H]2O[C@H](COP(=O)(O)OP(=O)(O)OC[C@H]3O[C@@H](n4cnc5c(N)ncnc54)[C@H](OP(=O)(O)O)[C@@H]3O)[C@@H](O)[C@H]2O)c1
The class given is biochemical, Corynebacterium glutamicum. The note with it: 1 mM isocitrate, 1 mM MnCl2, 20 mM MOPS pH 7.4, 100 mM NaCl, 30 °C, varied: cofactor. From the text: (§2) NADPH fluorescence, initial rates, Michaelis-Menten fit on CgIDH

Substrate in data set [4]: O=C(O)CC(C(=O)O)C(O)C(=O)O
The class given is biochemical, Corynebacterium glutamicum. Conditions: 1 mM NADP+, 1 mM MnCl2, 20 mM MOPS pH 7.4, 100 mM NaCl, 30 °C, DL-isocitrate 0-100 μM.
Text: as §2

B1: AvIDH (Azotobacter vinelandii) (protein)
chain: STPKIIYTLTDEAPALATYSLLPIIKAFTGSSGIAVETRDISLAGRLIATFPEYLTDTQKISDDLAELGKLATTPDANIIKLPNISASVPQLKAAIKELQQQGYKLPDYPEEPKTDTEKDVKARYDKIKGSAVNPVLREGNSDRRAPLSVKNYARKHPHKMGAWSADSKSHVAHMDNGDFYGSEKAALIGAPGSVKIELIAKDGSSTVLKAKTSVQAGEIIDSSVMSKNALRNFIAAEIEDAKKQGVLLSVHLKATMMKVSDPIMFGQIVSEFYKDALTKHAEVLKQIGFDVNNGIGDLYARIKTLPEAKQKEIEADIQAVYAQRPQLAMVNSDKGITNLHVPSDVIVDASMPAMIRDSGKMWGPDGKLHDTKAVIPDRCYAGVYQVVIEDCKQHGAFDPTTMGSVPNVGLMAQKAEEYGSHDKTFQIPADGVVRVTDESGKLLLEQSVEAGDIWRMCQAKDAPIQDWVKLAVNRARATNTPAVFWLDPARAHDAQVIAKVERYLKDYDTSGLDIRILSPVEATRFSLARIREGKDTISVTGNVLRDYLTDLFPIMELGTSAKMLSIVPLMSGGGLFETGAGGSAPKHVQQFLEEGYLRWDSLGEFLALAASLEHLGNAYKNPKALVLASTLDQATGKILDNNKSPARKVGEIDNRGSHFYLALYWAQALAAQTEDKELQAQFTGIAKALTDNETKIVGELAAAQGKPVDIAGYYHPNTDLTSKAIRPSATFNAALAPLA
notes: full-length gene, C-terminal 6xHis (kept), pET24a, E. coli BL21(DE3), Ni-NTA
Consider B1, for which, in data set [1], the Michaelis-Menten constant (Km) was determined as 5.9 µM, the kcat came out at 38.7 s⁻¹ and the catalytic efficiency (kcat/Km) is 6.6e+06 M⁻¹ s⁻¹. Further, in data set [2], the Km was found to be 13.9 µM, the kcat amounted to 44 s⁻¹ and the kcat/Km stood at 3.2e+06 M⁻¹ s⁻¹.

B2: CgIDH (Corynebacterium glutamicum ATCC 13032) (protein)
chain: MAKIIWTRTDEAPLLATYSLKPVVEAFAATAGIEVETRDISLAGRILAQFPERLTEDQKVGNALAELGELAKTPEANIIKLPNISASVPQLKAAIKELQDQGYDIPELPDNATTDEEKDILARYNAVKGSAVNPVLREGNSDRRAPIAVKNFVKKFPHRMGEWSADSKTNVATMDANDFRHNEKSIILDAADEVQIKHIAADGTETILKDSLKLLEGEVLDGTVLSAKALDAFLLEQVARAKAEGILFSAHLKATMMKVSDPIIFGHVVRAYFADVFAQYGEQLLAAGLNGENGLAAILSGLESLDNGEEIKAAFEKGLEDGPDLAMVNSARGITNLHVPSDVIVDASMPAMIRTSGHMWNKDDQEQDTLAIIPDSSYAGVYQTVIEDCRKNGAFDPTTMGTVPNVGLMAQKAEEYGSHDKTFRIEADGVVQVVSSNGDVLIEHDVEANDIWRACQVKDAPIQDWVKLAVTRSRLSGMPAVFWLDPERAHDRNLASLVEKYLADHDTEGLDIQILSPVEATQLSIDRIRRGEDTISVTGNVLRDYNTDLFPILELGTSAKMLSVVPLMAGGGLFETGAGGSAPKHVQQVQEENHLRWDSLGEFLALAESFRHELNNNGNTKAGVLADALDKATEKLLNEEKSPSRKVGEIDNRGSHFWLTKFWADELAAQTEDADLAATFAPVAEALNTGAADIDAALLAVQGGATDLGGYYSPNEEKLTNIMRPVAQFNEIVDALKK
notes: full-length gene, C-terminal 6xHis (kept), pET24a, E. coli BL21(DE3), Ni-NTA; about 80 kDa by SEC, monomer
Consider B2, for which, in data set [3], the Km is 10.3 µM, the kcat was 43.7 s⁻¹ and the kcat/Km is 4.3e+06 M⁻¹ s⁻¹. Moreover, in data set [4], the Km turned out to be 15.0 µM, the kcat was found to be 49.4 s⁻¹ and the catalytic efficiency (kcat/Km) is 3.3e+06 M⁻¹ s⁻¹.
